In article PMC3469841 one finds stoichiometry N and ratio of monomer to dimer (monomer:dimer) data, which are given here for two substances.

The target of test [1] is P79S stefin B variant (human) (UniProt P04080). Kind of test: SEC; KW-803 column (Shodex), HPLC with UV detection; 50 mM sodium phosphate, 100 mM NaCl, pH 7, 1 mM NaN3. (Size exclusion chromatography separates by hydrodynamic size, large species first.)
For test [2] the target is unchanged. The test is described as follows: SEC; KW-803 column (Shodex), HPLC with UV detection; 15 mM sodium acetate, 150 mM NaCl, 1 mM NaN3, pH lowered to 4.7; tetramer to dimers and monomers.
The target in test [3] is Stefin B construct (C3S, with glutamate polymorph at position 31) (human) (UniProt P04080). The test is described as follows: NMR (2D 1H15N HSQC amide peak intensities); apparent ratio of monomer to dimer from peaks of Q71, L73 and E76; pH 6.0, 0% TFE; 200 uM 15N protein (monomer equivalents), 100 mM NaCl, 25°C; dimer to monomers; the paper says the two species never reach equilibrium.

For test [4] the target is unchanged. Kind of test: NMR (2D 1H15N HSQC amide peak intensities); apparent ratio of monomer to dimer from peaks of Q71, L73 and E76; fibrillization conditions, pH 4.7 and 10% TFE, 15 mM sodium acetate, 25°C; dimer to monomers.

By stoichiometry N is commonly meant a count of units in the complex or per binding partner. On to “P79S stefin B variant (from UniProt P04080 1-98) (natural protein)”, for which the values for the stoichiometry N in test [1] and in test [2] were 4 and 2, respectively.
In the case of “Stefin B construct (C3S, with glutamate polymorph at position 31) (from UniProt P04080 4-98) (natural protein)”, the ratio of monomer to dimer (monomer:dimer) worked out at 1 in test [3] and 2 in test [4].
